How the values were obtained:
Experiment in all cases: competitive MHC class II binding assay
HLA-DRB1*0301 = target: T1, HLA-DRB1*0301 (human)
T1 construct: human MHC class II allotype

HLA-DRB1*0101 = target: T2, HLA-DRB1*0101 (human)
T2 construct: human MHC class II allotype

HLA-DRB1*1101 = target: T3, HLA-DRB1*1101 (human)
T3 construct: human MHC class II allotype

HLA-DRB1*0401 = target: T4, HLA-DRB1*0401 (human)
T4 construct: human MHC class II allotype

DQA1*0102/DQB1*0602 = target: T5, DQA1*0102/DQB1*0602 (human, UniProt P01920 33-230, limits assumed)
T5 construct: human MHC class II allotype
T5 MHC II alpha: not shown
T5 MHC II beta: not shown

HLA-DRB1*0701 = target: T6, HLA-DRB1*0701 (human)
T6 construct: human MHC class II allotype

HLA-DRB1*1301 = target: T7, HLA-DRB1*1301 (human)
T7 construct: human MHC class II allotype

HLA-DRB1*1501 = target: T8, HLA-DRB1*1501 (human)
T8 construct: human MHC class II allotype

Measured: binding result

KVLAPAFKKELER [HDM50]
no binding: all assays above

IGIKDLDAFRHYD [HDM11]
no binding: all assays above

IDLKGELDMRNIQVR [HDM32A]
no binding: all assays above

EYIQHNGVVQESY [HDM05]
no binding: all assays above

KSETFDPMKVPDHSD [HDM29B]
no binding: all assays above

HIGIIDLKGELDMRN [HDM31A]
no binding: all assays above

RNSWDTNWGDNGYG [HDM16A]
no binding: all assays above

PNVNKIREALAQT [HDM07]
no binding: all assays above

IGIIDLKGELDMRN [HDM31]
no binding: all assays above

KDLDAFRHYDGRT [HDM12]
no binding: all assays above

RTIIQRDNGYQPNY (solubility test: NO) [HDM13]
no binding: all assays above

ANVKSEDGVVKAH [HDM37]
no binding: all assays above

NKIREALAQTHSA [HDM08]
no binding: all assays above

KRVGDANVKSEDG [HDM36]
no binding: all assays above
